According to US8487076:

B1: SEQ ID NO 1 (…), HLA-A24-binding 9 amino acid peptide of survivin (peptide)
peptide: TLPPAWQPF
B2: SEQ ID NO 23 (…), HLA-A2-binding 9 amino acid peptide of survivin (peptide)
peptide: TLPPAWQPF
B3: SEQ ID NO 44 (…), HLA-A24-binding 10 amino acid peptide of survivin (peptide)
peptide: FLKDHRISTF
B4: SEQ ID NO 61 (…), HLA-A2-binding 10 amino acid peptide of survivin (peptide)
peptide: FLKDHRISTF

Experiments:
[1] = target: HLA-A24 molecule, product of the HLA-A*2402 gene, on C1R-A24 cells (human); assay: flow cytometry; acid-stripped C1R-A24 cells reassociated with b2m and peptide dilutions, stained with labeled mAb 17A12; settings: remark: other sources report otherwise
[2] = target: HLA-A2 molecule, product of the HLA-A*0201 gene, on JY cells (human); assay: flow cytometry; acid-stripped JY cells reassociated with b2m and peptide dilutions, stained with labeled mAb BB7.2; settings: remark: other sources report otherwise

Binder	-log Kd (-log Kd (Kd in molar concentration)) [1]	-log Kd (-log Kd (Kd in molar concentration)) [2]
B1	8.26	–
B2	–	5.36
B3	7.01	–
B4	–	5.53
